Assay results taken from paper PMC10397247.
Each block holds one binder with its values, some of them ahead of it.

How the values were obtained:
4H3493-AA = molecular target: T1, 4H3493-AA; test: two-hybrid library CCmax; settings: mean of both orientations;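 note: natural log of median RNA to DNA barcode read ratio; higher means stronger binding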
T1 chain: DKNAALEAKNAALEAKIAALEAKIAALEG

4H406-AA = molecular target: T2, 4H406-AA; test: two-hybrid library CCmax; settings: mean of both orientations;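 note: natural log of median RNA to DNA barcode read ratio; higher means stronger binding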
T2 chain: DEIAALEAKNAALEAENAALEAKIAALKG

4H347-AA = molecular target: T3, 4H347-AA; test: two-hybrid library CCmax; settings: mean of both orientations;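 note: natural log of median RNA to DNA barcode read ratio; higher means stronger binding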
T3 chain: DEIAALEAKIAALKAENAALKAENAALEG

4H2611-AA = molecular target: T4, 4H2611-AA; test: two-hybrid library CCmax; settings: mean of both orientations;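 note: natural log of median RNA to DNA barcode read ratio; higher means stronger binding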
T4 chain: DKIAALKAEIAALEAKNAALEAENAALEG

4H2219-AA = molecular target: T5, 4H2219-AA; test: two-hybrid library CCmax; settings: mean of both orientations;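 note: natural log of median RNA to DNA barcode read ratio; higher means stronger binding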
T5 chain: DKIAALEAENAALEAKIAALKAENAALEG

4H3381-AA = molecular target: T6, 4H3381-AA; test: two-hybrid library CCmax; settings: mean of both orientations;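 note: natural log of median RNA to DNA barcode read ratio; higher means stronger binding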
T6 chain: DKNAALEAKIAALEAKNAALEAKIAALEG

4H688-AA = molecular target: T7, 4H688-AA; test: two-hybrid library CCmax; settings: mean of both orientations
T7 chain: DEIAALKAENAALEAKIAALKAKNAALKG

4H3001-AA = molecular target: T8, 4H3001-AA; test: two-hybrid library CCmax; settings: mean of both orientations
T8 chain: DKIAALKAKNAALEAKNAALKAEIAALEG

4H2774-AA = molecular target: T9, 4H2774-AA; test: two-hybrid library CCmax; settings: mean of both orientations
T9 chain: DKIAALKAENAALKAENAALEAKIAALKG

4H2504-AA = molecular target: T10, 4H2504-AA; test: two-hybrid library CCmax
T10 chain: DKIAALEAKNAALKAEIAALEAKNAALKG

4H1738-AA = molecular target: T11, 4H1738-AA; test: two-hybrid library CCmax
T11 chain: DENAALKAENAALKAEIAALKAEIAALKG

4H963-AA = molecular target: T12, 4H963-AA; test: two-hybrid library CCmax; settings: mean of both orientations
T12 chain: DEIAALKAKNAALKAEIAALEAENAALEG

4H2592-AA = molecular target: T13, 4H2592-AA; test: two-hybrid library CCmax; settings: mean of both orientations
T13 chain: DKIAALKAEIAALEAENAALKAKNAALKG

4H376-AA = molecular target: T14, 4H376-AA; test: two-hybrid library CCmax; settings: mean of both orientations
T14 chain: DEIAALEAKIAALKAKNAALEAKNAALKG

4H3340-AA = molecular target: T15, 4H3340-AA; test: two-hybrid library CCmax; settings: mean of both orientations
T15 chain: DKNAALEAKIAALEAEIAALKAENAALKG

4H249-AA = molecular target: T16, 4H249-AA; test: two-hybrid library CCmax; settings: mean of both orientations
T16 chain: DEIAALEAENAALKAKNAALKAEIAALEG

O15-bH = molecular target: T17, O15-bH; test: two-hybrid library CCNG1
T17 chain: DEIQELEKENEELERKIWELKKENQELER

O6-bH = molecular target: T18, O6-bH; test: two-hybrid library CCNG1
T18 chain: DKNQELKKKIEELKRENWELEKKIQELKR

O12-bH = molecular target: T19, O12-bH; test: two-hybrid library CCNG1
T19 chain: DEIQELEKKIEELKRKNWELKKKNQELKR

O8-bH = molecular target: T20, O8-bH; test: two-hybrid library CCNG1
T20 chain: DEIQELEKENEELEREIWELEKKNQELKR

O11-bH = molecular target: T21, O11-bH; test: two-hybrid library CCNG1
T21 chain: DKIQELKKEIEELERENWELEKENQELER

O14-bH = molecular target: T22, O14-bH; test: two-hybrid library CCNG1
T22 chain: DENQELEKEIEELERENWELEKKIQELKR

O9-bH = molecular target: T23, O9-bH; test: two-hybrid library CCNG1; settings: mean of both orientations
T23 chain: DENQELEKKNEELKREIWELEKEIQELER

O10-bH = molecular target: T24, O10-bH; test: two-hybrid library CCNG1; settings: mean of both orientations
T24 chain: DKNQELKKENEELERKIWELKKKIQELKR

O7-bH = molecular target: T25, O7-bH; test: two-hybrid library CCNG1
T25 chain: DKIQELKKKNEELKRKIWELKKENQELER

O4-bH = molecular target: T26, O4-bH; test: two-hybrid library CCNG1
T26 chain: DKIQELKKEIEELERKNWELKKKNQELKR

O5-bH = molecular target: T27, O5-bH; test: two-hybrid library CCNG1
T27 chain: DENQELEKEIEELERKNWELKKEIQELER

O13-bH = molecular target: T28, O13-bH; test: two-hybrid library CCNG1
T28 chain: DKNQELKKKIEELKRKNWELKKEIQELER

O3-bH = molecular target: T29, O3-bH; test: two-hybrid library CCNG1
T29 chain: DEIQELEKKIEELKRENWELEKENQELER

O16-bH = molecular target: T30, O16-bH; test: two-hybrid library CCNG1
T30 chain: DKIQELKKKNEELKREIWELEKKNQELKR

O2-bH = molecular target: T31, O2-bH; test: two-hybrid library CCNG1
T31 chain: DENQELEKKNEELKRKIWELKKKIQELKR

4H967-bN = molecular target: T32, 4H967-bN; test: two-hybrid library CCNG1
T32 chain: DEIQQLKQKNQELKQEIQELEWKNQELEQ

4H953-bN = molecular target: T33, 4H953-bN; test: two-hybrid library CCNG1
T33 chain: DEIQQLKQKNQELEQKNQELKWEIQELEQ

4H687-bN = molecular target: T34, 4H687-bN; test: two-hybrid library CCNG1
T34 chain: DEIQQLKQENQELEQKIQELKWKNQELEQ

4H1446-bN = molecular target: T35, 4H1446-bN; test: two-hybrid library CCNG1
T35 chain: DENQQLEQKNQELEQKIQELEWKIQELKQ

4H3189-bN = molecular target: T36, 4H3189-bN; test: two-hybrid library CCNG1
T36 chain: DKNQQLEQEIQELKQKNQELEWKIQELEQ

4H2576-bN = molecular target: T37, 4H2576-bN; test: two-hybrid library CCNG1
T37 chain: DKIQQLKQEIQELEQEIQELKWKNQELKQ

4H568-bN = molecular target: T38, 4H568-bN; test: two-hybrid library CCNG1
T38 chain: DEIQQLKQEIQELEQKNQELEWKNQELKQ

4H3782-bN = molecular target: T39, 4H3782-bN; test: two-hybrid library CCNG1
T39 chain: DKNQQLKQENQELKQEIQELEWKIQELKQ

4H918-bN = molecular target: T40, 4H918-bN; test: two-hybrid library CCNG1
T40 chain: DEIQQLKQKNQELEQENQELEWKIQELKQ

4H4001-bN = molecular target: T41, 4H4001-bN; test: two-hybrid library CCNG1
T41 chain: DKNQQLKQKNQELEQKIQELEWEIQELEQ

4H2162-bA = molecular target: T42, 4H2162-bA; test: two-hybrid library CCNG1
T42 chain: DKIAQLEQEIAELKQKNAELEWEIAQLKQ

4H2697-bN = molecular target: T43, 4H2697-bN; test: two-hybrid library CCNG1
T43 chain: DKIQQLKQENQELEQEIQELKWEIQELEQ

4H1845-bN = molecular target: T44, 4H1845-bN; test: two-hybrid library CCNG1
T44 chain: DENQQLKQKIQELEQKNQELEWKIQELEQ

4H797-bN = molecular target: T45, 4H797-bN; test: two-hybrid library CCNG1
T45 chain: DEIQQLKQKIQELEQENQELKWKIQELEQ

4H1369-bN = molecular target: T46, 4H1369-bN; test: two-hybrid library CCNG1
T46 chain: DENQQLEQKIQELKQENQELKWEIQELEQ

4H370-bN = molecular target: T47, 4H370-bN; test: two-hybrid library CCNG1
T47 chain: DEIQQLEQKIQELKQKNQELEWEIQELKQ

4H883-bN = molecular target: T48, 4H883-bN; test: two-hybrid library CCNG1
T48 chain: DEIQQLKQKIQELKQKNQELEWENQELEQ

4H2610-bN = molecular target: T49, 4H2610-bN; test: two-hybrid library CCNG1
T49 chain: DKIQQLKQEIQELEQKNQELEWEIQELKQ

4H72-bN = molecular target: T50, 4H72-bN; test: two-hybrid library CCNG1
T50 chain: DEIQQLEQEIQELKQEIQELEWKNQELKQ

4H331-bN = molecular target: T51, 4H331-bN; test: two-hybrid library CCNG1
T51 chain: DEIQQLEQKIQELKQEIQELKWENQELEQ

4H2667-bN = molecular target: T52, 4H2667-bN; test: two-hybrid library CCNG1
T52 chain: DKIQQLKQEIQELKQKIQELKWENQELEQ

4H462-bN = molecular target: T53, 4H462-bN; test: two-hybrid library CCNG1
T53 chain: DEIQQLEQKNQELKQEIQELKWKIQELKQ

4H3606-bN = molecular target: T54, 4H3606-bN; test: two-hybrid library CCNG1
T54 chain: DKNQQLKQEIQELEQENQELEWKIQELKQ

4H607-bN = molecular target: T55, 4H607-bN; test: two-hybrid library CCNG1
T55 chain: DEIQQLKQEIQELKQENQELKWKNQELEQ

4H3843-bN = molecular target: T56, 4H3843-bN; test: two-hybrid library CCNG1
T56 chain: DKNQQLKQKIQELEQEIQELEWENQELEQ

interaction score (4H3493-AA): -1.11 | interaction score (4H406-AA): -1.49 | interaction score (4H347-AA): -1.67 | interaction score (4H2611-AA): -1.52 | interaction score (4H2219-AA): -1.76 | interaction score (4H3381-AA): -1.45 | interaction score (4H688-AA): -1.24 | interaction score (4H3001-AA): -1.39 | interaction score (4H2774-AA): -1.15 | interaction score (4H2504-AA): -1.96 | interaction score (4H1738-AA): 1.65 | interaction score (4H963-AA): -1.8 | interaction score (4H2592-AA): -1.14 | interaction score (4H376-AA): -1.75 | interaction score (4H3340-AA): -1.31 | interaction score (4H249-AA): -1.2
Binder: DENAALKAENAALKAEIAALKAEIAALKG [4H1738-AA]

interaction score (O15-bH): -0.726 | interaction score (O6-bH): 0.0839 | interaction score (O12-bH): -1.91 | interaction score (O8-bH): -0.465 | interaction score (O11-bH): -0.919 | interaction score (O14-bH): -1.44 | interaction score (O9-bH): 0.317 | interaction score (O10-bH): 0.392 | interaction score (O7-bH): 0.671 | interaction score (O4-bH): 0.524 | interaction score (O5-bH): 0.349 | interaction score (O13-bH): 0.177 | interaction score (O3-bH): 1.13 | interaction score (O16-bH): 0.522 | interaction score (O2-bH): 0.103
Binder: DKNQELKKENEELERKIWELKKKIQELKR [O10-bH]

interaction score (4H967-bN): -0.997 | interaction score (4H953-bN): -1.2 | interaction score (4H687-bN): -1.7 | interaction score (4H1446-bN): -2.34 | interaction score (4H3189-bN): -0.697 | interaction score (4H2576-bN): -0.023 | interaction score (4H568-bN): -1.26 | interaction score (4H3782-bN): -1.06 | interaction score (4H918-bN): -0.868 | interaction score (4H4001-bN): -0.815 | interaction score (4H2162-bA): -0.463 | interaction score (4H2697-bN): -0.852 | interaction score (4H1845-bN): -1.4 | interaction score (4H797-bN): -1.65 | interaction score (4H1369-bN): -0.802 | interaction score (4H370-bN): -1.79 | interaction score (4H883-bN): -1.19 | interaction score (4H2610-bN): -0.97 | interaction score (4H72-bN): -1.26 | interaction score (4H331-bN): -1.16 | interaction score (4H2667-bN): -1.23 | interaction score (4H462-bN): -1.07 | interaction score (4H3606-bN): 0.215 | interaction score (4H607-bN): -0.655 | interaction score (4H3843-bN): -1.02
Binder: DENQQLEQKIQELKQENQELKWEIQELEQ [4H1369-bN]
